Measured values as given in patent US20040029178A1, “Novel g protein-coupled receptor proteins and dnas thereof” (priority 2000, published 2004).
Peptide text beside a SMILES is read from it.

Key:
TGR26 [1] = molecular target: T1, TGR26 (Rattus norvegicus, UniProt Q56UD9); experiment: Receptor binding using [125I-Tyr10]-hGPR8L (1-23) and membrane fraction of TGR26 expressing CHO cells; conditions: for IC50: membrane fraction of TGR26 expressing CHO cells, [125I-Tyr10]-hGPR8L (1-23), method of Example 8; for inhibition for the specific binding of [125I-Tyr10]-hGPR8L (1-23): membrane fraction of TGR26 expressing cells, in words
T1 construct: expressed in transfected cells; whole cells in A1, membrane fraction in A2 and A3
T1 sequence (Q56UD9 1-329): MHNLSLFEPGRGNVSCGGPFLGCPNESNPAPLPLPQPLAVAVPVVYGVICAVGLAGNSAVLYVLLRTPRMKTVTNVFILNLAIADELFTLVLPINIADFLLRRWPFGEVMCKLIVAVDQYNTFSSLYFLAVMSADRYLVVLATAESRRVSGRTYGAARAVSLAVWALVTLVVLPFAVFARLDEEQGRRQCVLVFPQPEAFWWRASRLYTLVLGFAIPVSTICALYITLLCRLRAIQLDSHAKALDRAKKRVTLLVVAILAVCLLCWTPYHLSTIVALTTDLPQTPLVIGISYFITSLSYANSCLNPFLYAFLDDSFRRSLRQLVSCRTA
Description: Using [^125I-Tyr^10]-hGPR8L (1-23) prepared by the method described in Reference Example 15 and a cell membrane fraction prepared from TGR26 expressing cells as described in Example 6, a receptor binding assay was carried out as follows.
Cell membrane fraction prepared from TGR26 expressing cells was diluted to various concentration with assay buffer (25 mM Tris-HCl, 5 mM EDTA, 0.05% CHAPS (3-[(3-Cholamidopropyl) Dimethyl-Ammonio]-1-Propanesulfonate), 0.1% BSA, 0.5 mM PMSF, 1 μg/ml Pepstatin, 20 μg/ml Leupeptin, 4 μg/ml E-64, pH 7.4), and 200 μl each of the diluent was dispensed into polypropilene test tube (Falcon 2053). In order to determine an amount of maximum binding, 2 μl of DMSO and 2 μl of 7 nM [^125I-Tyr^10]-hGPR8L (1-23) were added to the membrane fraction solution. Further, in order to determine a non-specific binding, 2 μl of 100 μM hGPR8L (1-23)/DMSO solution and 2 μl of 7 nM [^125I-Tyr^10]-hGPR8L (1-23) were added to the membrane fraction solution. The reaction was done at 25° C. for 75 minutes, and the reaction mixture was filtered by suction filtration using Whatman glassfilter (GF-F) treated with polyethyleneimine. In addition, the filter was washed twice with 1.5 ml of washing buffer (25 mM Tris-HCl, 5 mM EDTA, 0.05% CHAPS, 0.1% BSA, pH 7.4). After filtration, a radioactivity remaining on the filter was counted using γ-counter, and an amount of specific binding was estimated by subtracting an amount of non-specific binding from an amount of maximum binding.
Where the concentration of membrane fraction was set to 3 μg/ml, an inhibition for the specific binding of [125I-Tyr^10]-hGPR8L (1-23) to the membrane fraction of TGR26 expressing cells by hGPR8L (1-23) and hGPR8L (1-30) was investigated.
A receptor binding activity of human- and porcine-homologue derivatives of GPR8 ligand peptide obtained in the reference examples was measured using a membrane fraction of TGR26 expressing CHO cells and [^125I-Tyr^10]-hGPR8L (1-23) by the method described in Example 8. The receptor binding activity is represented by concentration of 50% inhibition for binding (IC50 value).

TGR26 [2] = molecular target: T1, TGR26; experiment: Inhibition of intracellular cAMP production using TGR26 expressing CHO cells; type: cell-based; conditions: 2 μM forskolin, various concentrations
Description: TGR26 expressing CHO cells prepared in Example 3 were seeded on 24-well plate at 5×10^4 cells/well and cultivated for 48 hours. The cells were washed with MEMα buffer (pH 7.4) containing 0.2 mM 3-isobutyl-methylxanthine, 0.05% BSA (bovine serum albumine) and 20 mM HEPES [hereafter, MEMα buffer (pH 7.4) containing 0.2 mM 3-isobutyl-methylxanthine, 0.05% BSA (bovine serum albumine) and 20 mM HEPES may be referred to as reaction buffer]. Then, 0.5 ml of the reaction buffer was added to the cells and the suspension was incubated for 30 minutes in the incubator. After removal of the reaction buffer and newly adding 0.25 ml of the reaction buffer to the cells, an appropriate concentration of sample in DMSO solution and 0.25 ml of the reaction buffer containing 2 μM forskolin were added to the cells and the mixture was reacted at 37° C. for 30 minutes. For termination of the reaction, 100 μl of 20% perchloric acid was added. Subsequently, the mixture was stood on ice for an hour to extract intracellular cAMP. The cAMP level in the extract was measured using the cAMP EIA Kit (Amersham Pharmacia Biotech).
The human homologue of GPR8 ligand peptide consisting of 23 residues represented by […], which was obtained in Reference Example 12 (hereafter, sometimes referred to as hGPR8L (1-23)), or the human homologue of GPR8 ligand peptide consisting of 30 residues represented by […], which was obtained in Reference Example 13 (hereafter, sometimes referred to as hGPR8L (1-30)) was administered at various concentrations to […] TGR26 expressing CHO cells by the method described in Example 4, and an inhibiting activity of intracellular cAMP production was measured.
In the figure, when an amount subtracted intracellular cAMP level with the reaction buffer from intracellular cAMP level with the reaction buffer containing forskolin is indicated as 100%, the inhibiting activity of cAMP synthesis is indicated as an amount subtracted intracellular cAMP level with hGPR8L (1-23) or hGPR8L (1-30) from intracellular cAMP level with the reaction buffer by representation of percentage (%).

TGR26 [3] = molecular target: T1, TGR26; experiment: GTPγS binding activity using a membrane fraction of TGR26 expressing CHO cells; type: biochemical; conditions: various concentrations
Description: Promoting activity for [^35S]-guanosine 5′-(γ-thio) triphosphate (GTPγS) binding to a membrane fraction of TGR26 expressing cells was assayed in accordance with the following method.
To 1×10^8 of TGR26 expressing CHO cells, 10 ml of homogenating buffer (10 mM NaHCO3, 5 mM EDTA, 0.5 mM PMSF (phenylmethylsulfonyl fluoride), 1 μg/ml Pepstatin, 4 μg/ml E-64, 20 μg/ml Leupeptin) was added, and the cells were disrupted using Polytron (12,000 rpm, 1 minute). Supernatant was obtained from the disrupted cell suspension by centrifugation (1,000 g, 15 minutes). In addition, the supernatant was ultracentrifuged (Beckman Type 30 rotor, 30,000 rpm, 1 hour), and precipitate obtained was kept as a membrane fraction of TGR26 expressing CHO cells.
The membrane fraction of TGR26 expressing CHO cells was diluted with membrane dilution buffer (50 mM Tris HCl buffer (pH 7.4), 5 mM MgCl2, 150 mM NaCl, 1 μM GDP, 0.1% BSA) to prepare a cell membrane fraction solution for assay at 30 μg/ml of protein concentration. To 200 μl of membrane fraction solution for assay, 2 μl of 50 nM [^35S]-guanosine 5′-(γ-thio) triphosphate (NEN) and 2 μl of sample/DMSO solution having an appropriate concentration were added. Then the mixture was incubated at 25° C. for one hour. The mixture was filtrated, and further the filter was washed twice with 1.5 ml of washing buffer (50 mM Tris HCl buffer (pH 7.4), 5 mM MgCl2, 1 mM EDTA, 0.1% BSA). Finally, a radioactivity on the filter was determined by liquid scintillation counter.
Various concentration of hGPR8L (1-23) or hGPR8L (1-30) was mixed with a membrane fraction of the TGR26 expressing cell in accordance with the method described in Example 6, and a promoting activity of GTPγS binding was assayed.

| IC50 (TGR26 [1]) [nM] | inhibition for the specific binding of [125I-Tyr10]-hGPR8L (1-23) (TGR26 [1]) | Compound | inhibiting activity of intracellular cAMP production (TGR26 [2]) | promoting activity of GTPγS binding (TGR26 [3]) |
| --- | --- | --- | --- | --- |
| 2000 |  | CSCC[C@H](NC(=O)[C@H](CC(C)C)NC(=O)[C@H](CC(C)C)NC(=O)CNC(=O)[C@H](C)NC(=O)[C@H](C)NC(=O)[C@H](CCCNC(=N)N)NC(=O)CNC(=O)[C@@H](NC(=O)[C@@H](NC(=O)[C@H](Cc1c[nH]cn1)NC(=O)[C@H](Cc1ccc(O)cc1)NC(=O)[C@H](CCCNC(=N)N)NC(=O)[C@@H]1CCCN1C(=O)[C@H](CO)NC(=O)[C@H](C)NC(=O)[C@@H](NC(=O)[C@@H](N)Cc1c[nH]cn1)C(C)C)[C@@H](C)O)C(C)C)C(=O)NCC(=O)N[C@@H](CC(C)C)C(=O)O [hGPR8L (4-23), His-Val-Ala-Ser-Pro-Arg-Tyr -His-Thr-Val-Gly-Arg-Ala-Ala-Gly-Leu-Leu-Met-Gly-Leu] (H-HVASPRYHTVGRAAGLLMGL-OH; C-terminus assumed) |  |  |
| 2500 |  | CSCC[C@H](NC(=O)[C@H](CC(C)C)NC(=O)[C@H](CC(C)C)NC(=O)CNC(=O)[C@H](C)NC(=O)[C@H](C)NC(=O)[C@H](CCCNC(=N)N)NC(=O)CNC(=O)[C@@H](NC(=O)[C@@H](NC(=O)[C@H](Cc1c[nH]cn1)NC(=O)[C@H](Cc1ccc(O)cc1)NC(=O)[C@@H](N)CCCNC(=N)N)[C@@H](C)O)C(C)C)C(=O)NCC(=O)N[C@@H](CC(C)C)C(=O)O [hGPRBL (9-23), Arg-Tyr-His-Thr-Val-Gly-Arg -Ala-Ala-Gly-Leu-Leu-Met-Gly-Leu] (H-RYHTVGRAAGLLMGL-OH; C-terminus assumed) |  |  |
|  | can also be confirmed | SEQ ID NO: 74: rat homologue of hGPR8L (1-30), ligand peptide to GPR8 deduced from SEQ ID NO: 72 (WYKHVASPRYHTVGRASGLLMGLRRSPYLW; Rat) | intracellular cAMP production of the TGR26 expressing CHO cells was inhibited depending on the concentration | GTPγS binding of the TGR26 expressing CHO cells was promoted depending on the concentration |
|  | can also be confirmed | SEQ ID NO: 92: mouse homologue of hGPR8L (1-30), ligand peptide to GPR8 deduced from SEQ ID NO: 90 (WYKHVASPRYHTVGRASGLLMGLRRSPYQW; Mouse) | intracellular cAMP production of the TGR26 expressing CHO cells was inhibited depending on the concentration | GTPγS binding of the TGR26 expressing CHO cells was promoted depending on the concentration |

The remaining lines, values behind:

| Compound | IC50 (TGR26 [1]) [nM] | inhibition for the specific binding of [125I-Tyr10]-hGPR8L (1-23) (TGR26 [1]) | inhibiting activity of intracellular cAMP production (TGR26 [2]) | promoting activity of GTPγS binding (TGR26 [3]) |
| --- | --- | --- | --- | --- |
| CSCC[C@H](NC(=O)[C@H](CC(C)C)NC(=O)[C@H](CC(C)C)NC(=O)CNC(=O)[C@H](C)NC(=O)[C@H](C)NC(=O)[C@H](CCCNC(=N)N)NC(=O)CNC(=O)[C@@H](NC(=O)[C@@H](NC(=O)[C@H](Cc1c[nH]cn1)NC(=O)[C@H](Cc1ccc(O)cc1)NC(=O)[C@H](CCCNC(=N)N)NC(=O)[C@@H]1CCCN1C(=O)[C@H](CO)NC(=O)[C@H](C)NC(=O)[C@@H](NC(=O)[C@H](Cc1c[nH]cn1)NC(=O)[C@H](CCCCN)NC(=O)[C@H](Cc1ccc(O)cc1)NC(=O)[C@@H](N)Cc1c[nH]c2ccccc12)[C@@H](C)O)[C@@H](C)O)C(C)C)C(=O)NCC(=O)N[C@@H](CC(C)C)C(=O)O [pGPR8L (1-23), Trp-Tyr-Lys-His-Val-Ala-Ser -Pro-Arg-Tyr-His-Thr-Val-Gly-Arg-Ala-Ala-Gly-Leu-Leu-Met-Gly-Leu] |  |  | intracellular cAMP production of the TGR26 expressing CHO cells was inhibited depending on the concentration | GTPγS binding of the TGR26 expressing CHO cells was promoted depending on the concentration |
| SEQ ID NO: 57: porcine homologue of hGPR8L (1-30), ligand peptide to GPR8 deduced from SEQ ID NO: 55 (WYKHTASPRYHTVGRAAGLLMGLRRSPYMW; Porcine) |  | can also be confirmed | intracellular cAMP production of the TGR26 expressing CHO cells was inhibited depending on the concentration | GTPγS binding of the TGR26 expressing CHO cells was promoted depending on the concentration |
| Trp-Tyr-Lys-His-Val-Ala-Ser -Pro-Arg-Tyr-His-Thr-Val-Gly-Arg-Ala-Ala-Gly-Leu-Leu-Met-Gly-Leu [SEQ ID NO: 73] |  | can also be confirmed | intracellular cAMP production of the TGR26 expressing CHO cells was inhibited depending on the concentration | GTPγS binding of the TGR26 expressing CHO cells was promoted depending on the concentration |
